Source: patent publication US20040072179
Where two headings read alike, the source gives them in different places.

B1: TPWT (wild type 27 kDa NIa proteinase of tobacco etch virus, C-terminal His6 tag) (protein)
chain: MAESGESLFKGPRDYNPISSTICHLTNESDGHTTSLYGIGFGPFIITNKHLFRRNNGTLLVQSLHGVFKVKNTTTLQQHLIDGRDMIIIRMPKDFPPFPQKLKFREPQREERICLVTTNFQTKSMSSMVSDTSCTFPSSDGIFWKHWIQTKDGQCGSPLVSTRDGFIVGIHSASNFTNTNNYFTSVPKNFMELLTNQEAQQWVSGWRLNADSVLWGGHKVFMSKPEEPFQPVKEATQLMNELVYSQLHHHHHH
B2: commercially available 27 kDa NIa proteinase (GibcoBRL) (protein)
chain: GESLFKGPRDYNPISSTICHLTNESDGHTTSLYGIGFGPFIITNKHLFRRNNGTLLVQSLHGVFKVKNTTTLQQHLIDGRDMIIIRMPKDFPPFPQKLKFREPQREERICLVTTNFQTKSMSSMVSDTSCTFPSSDGIFWKHWIQTKDGQCGSPLVSTRDGFIVGIHSASNFTNTNNYFTSVPKNFMELLTNQEAQQWVSGWRLNADSVLWGGHKVFMSKPEEPFQPVKEATQLMNELVYSQ

Legend:
[1] = test system: 17 kDa substrate containing the target cleavage site Glu-Asn-Leu-Tyr-Phe-Gln-Gly (SEQ ID NO: 5)
[2] = biological target: 17 kDa substrate containing the target cleavage site Glu-Asn-Leu-Tyr-Phe-Gln-Gly (SEQ ID NO: 5); remark: listed apart in the source

Row | Molecule | specific activity for substrate cleavage [1] | specific activity for substrate cleavage [2] | substrate cleavage (SDS-PAGE) [2]
1 | TPSN (mutant 27 kDa NIa proteinase with Ser219 to Asn mutation, C-terminal His6 tag) | TPWT and TPSN have similar activity to each other and to the commercially available proteinase at all substrate concentrations tested | – | –
2 | B1 | – | TPWT and TPSN have similar activity to each other and to the commercially available proteinase at all substrate concentrations tested | –
3 | B2 | – | TPWT and TPSN have similar activity to each other and to the commercially available proteinase at all substrate concentrations tested | produces a ˜15 kDa peptide when cleaved with commercially available 27 kDa NIa proteinase (GibcoBRL)
